Results as given in US20110243929A1 (MEDLMMUNE, published 2011).
Values joined by “and” are separate entries in the source; they are usually repeats but may differ in a detail not shown here. Equal values may be shown once.

B1: IC9G1-aFuc (afucosylated IC9G1 antibody composition) (antibody, human IgG1, kappa)
heavy: not shown
light: DIQMTQSPSSVSASVGDRVTITCRASQGISRLLAWYQQKPGKAPKLLIYVASSLQSGVPSRFSGSGSGTDFTLTISSLQPEDFATYYCQQANSFPWTFGQGTKVEIKRTVAAPSVFIFPPSDEQLKSGTASVVCLLNNFYPREAKVQWKVDNALQSGNSQESVTEQDSKDSTYSLSSTLTLSKADYEKHKVYACEVTHQGLSSPVTKSFNRGEC
modifications: chain 1 pos 305 (Asn297, EU numbering): complex N-glycoside-linked sugar chain without fucose on the reducing-end N-acetylglucosamine, written N
notes: Same polypeptides as IC9G1 (JMab-136 VH/VK, human IgHγ1 constant region, kappa); also called IG9G1-aFuc; ICG91-aFuc; copies: 2 + 2
B2: IC9G1 (anti ICOS antibody comprising JMab-136 VH and VL domains and the IgHγ1 constant region) (antibody, human IgG1, kappa)
heavy: not shown
light: B1 light
notes: The rest is a human IgHγ1 constant region (IgG1) and a human IgLK (kappa) constant region; copies: 2 + 2

Columns and labels:
[1] = target: T1, Human FcγRIIa (human, UniProt P12318); assay: BIAcore 3000; IgG immobilized on CM5 chip, soluble FcγR extracellular domain injected; equilibrium 1:1 binding isotherm
T1 construct: extracellular domain
T1 sequence (extracellular domain, looked up): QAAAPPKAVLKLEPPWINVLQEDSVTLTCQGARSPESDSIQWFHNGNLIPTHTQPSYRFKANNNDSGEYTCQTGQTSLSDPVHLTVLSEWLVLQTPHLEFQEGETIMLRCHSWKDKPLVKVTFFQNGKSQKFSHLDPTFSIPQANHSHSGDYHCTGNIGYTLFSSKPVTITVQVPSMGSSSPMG
Description: (§1) The measurements are performed according to standard protocols. Briefly, all IgGs are immobilized onto separate flow cells of two CM5 sensor chips using standard amino coupling chemistry as recommended by the manufacturer. […] Stock solutions of the recombinantly expressed extracellular domains of all FcγRs at either 4000 or 16000 nM are prepared and then serially diluted down to the desired concentrations using the instrument buffer (50 mM HBS buffer containing 0.01 M HEPES, pH 7.4, 0.15 M NaCl, 3 mM EDTA and 0.005% P-20). Duplicate injections of each concentration of FcγR ared then injected over all of the IgG surfaces at a flow rate of 5 μL/min. Binding data are collected for approximately […], followed by a 30 sec. pulse of 5 mM HCl between injections to regenerate the IgG surfaces. Several buffer injections are also interspersed throughout the injection series. One of these buffer injections is used along with the reference cell data to correct the raw data sets. After all binding data is collected, individual data sets are averaged for each y concentration, then fit to a 1:1 binding isotherm from which the equilibrium binding constants, KD, are derived. Analysis is carried out using the BIAevaluation software.

[2] = target: T2, Human FcγRIIb (human, UniProt P31994); assay: as above
T2 construct: extracellular domain; Only the IC9G1-aFuc cell is filled
T2 sequence (extracellular domain, looked up): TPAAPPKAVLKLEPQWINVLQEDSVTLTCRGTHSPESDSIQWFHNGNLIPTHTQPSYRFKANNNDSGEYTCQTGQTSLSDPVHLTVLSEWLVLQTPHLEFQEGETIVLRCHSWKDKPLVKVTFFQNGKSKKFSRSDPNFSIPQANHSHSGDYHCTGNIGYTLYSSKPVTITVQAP
Description: as §1

[3] = target: T3, Cynomolgus FcγRIIb (Macaca fascicularis, UniProt A0A140HDP4); assay: as above
T3 construct: extracellular domain
T3 sequence (extracellular domain): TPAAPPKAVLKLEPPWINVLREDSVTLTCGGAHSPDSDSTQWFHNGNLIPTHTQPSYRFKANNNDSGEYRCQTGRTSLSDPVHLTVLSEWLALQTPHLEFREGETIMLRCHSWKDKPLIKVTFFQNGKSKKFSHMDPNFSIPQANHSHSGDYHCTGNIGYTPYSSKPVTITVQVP
Description: as §1

[4] = target: T4, cynomolgus FcγRIIIA, recombinantly expressed extracellular domain (cynomolgus, UniProt Q8SPW2 17-208); assay: as above
T4 construct: extracellular domain; also called cynomolgus FcgRIIIa
T4 sequence (Q8SPW2 17-208): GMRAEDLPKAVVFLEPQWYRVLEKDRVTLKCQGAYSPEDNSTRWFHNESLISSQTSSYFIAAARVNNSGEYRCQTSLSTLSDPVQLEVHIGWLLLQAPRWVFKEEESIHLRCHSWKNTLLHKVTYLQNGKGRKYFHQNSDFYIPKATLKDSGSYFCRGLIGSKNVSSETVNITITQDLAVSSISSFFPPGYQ
Description: as §1

[5] = target: T5, Cynomolgus FcγRIIa (Macaca fascicularis, UniProt A0A140HDN0); assay: as above
T5 construct: extracellular domain
T5 sequence (extracellular domain): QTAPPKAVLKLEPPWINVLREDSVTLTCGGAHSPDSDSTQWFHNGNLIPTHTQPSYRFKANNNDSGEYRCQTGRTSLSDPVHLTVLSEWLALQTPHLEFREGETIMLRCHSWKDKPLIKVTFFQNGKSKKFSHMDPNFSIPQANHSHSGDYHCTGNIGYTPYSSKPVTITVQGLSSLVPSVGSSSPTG
Description: as §1

[6] = target: T6, cynomolgus ICOS (cynomolgus, UniProt A0A2K5TQR6 21-168); assay: cell-based or functional assay
T6 sequence: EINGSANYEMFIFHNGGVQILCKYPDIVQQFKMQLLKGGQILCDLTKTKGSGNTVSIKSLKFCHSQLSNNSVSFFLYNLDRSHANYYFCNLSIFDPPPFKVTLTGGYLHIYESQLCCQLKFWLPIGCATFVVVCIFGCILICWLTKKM

[7] = target: T6, cynomolgus ICOS; assay: cell-based or functional assay; remark: listed apart in the source
[8] = target: T6, cynomolgus ICOS; assay: cell-based or functional assay; remark: listed apart in the source
[9] = target: T7, human ICOS (human, UniProt Q9Y6W8 21-199); assay: cell-based or functional assay
T7 sequence: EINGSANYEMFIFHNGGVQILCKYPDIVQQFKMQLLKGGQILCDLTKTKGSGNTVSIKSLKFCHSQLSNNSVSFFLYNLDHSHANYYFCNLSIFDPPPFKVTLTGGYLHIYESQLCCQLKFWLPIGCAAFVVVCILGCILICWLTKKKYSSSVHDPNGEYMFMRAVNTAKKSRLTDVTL

Binder	Kd [1] [nM]	Kd [2] [nM]	Kd [3] [nM]	Kd [4] [nM]	Kd [5] [nM]	EC50 of ADCC (% cytotoxicity; human NK effector cells, isolated cynomolgus splenic T cells as targets) [6] [mg/L]	EC50 of ADCC (% cytotoxicity; human NK effector cells, isolated cynomolgus mesenteric lymph node T cells as targets) [7] [mg/L]	EC50 of ADCC activity (isolated human NK effector cells, 2:1, overnight) [8]	EC50 of ADCC activity (isolated human NK effector cells, 2:1, overnight) [9] [nM]
B1	2010	14000	1950	21	3140	0.00205	0.0024	0.0146 nM and 0.0171 nM	0.0082
B2	3310		2370	394	5280	0.0331	0.0278	0.236 nM and 0.198 nM	0.0604
